The results in this text go back to the nanobody polyreactivity screen of Harvey et al. (2022).

This series in a line: yeast display, Sf9 membrane polyspecificity reagent, FACS + sequencing; frameworks hold sequencing errors. A digest of the protocol:
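A nanobody's polyreactivity label depends on the gate it was sorted from. Yeast display cells were stained with 10% biotinylated, detergent-solubilized Sf9 membrane reagent for 1 hour at 4 °C, enriched on streptavidin microbeads and sorted by FACS. The low and high (top ~1%) gates were set on anti-HA fluorescence for expression and streptavidin fluorescence for reagent binding.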
“QVQLVESGGGLVQAGGSLRLSCAASGFTFTTYVMGWSRQAPGKERELVAAISRRGTSTRYADSVKGRFTISRDNAKNTVYLQMNSLIPEDTAVYYCAADRPYSIVPYDYWGQGTQVTVSS”: the “polyreactivity (PSR sort gate)” value is given as “high polyreactivity”. On to “QVQLVESGGGLVQAGGSLRLSCAASGFTFTVYAMGWYRQAPGKERELVAAIRWSGGSTSYADSVKGRFTISRDNAKNTVYLQMNSLKPEDTAVYYCNARISDAHYQSNYFLVLYDYWGKGTQVTVSS”, for which the “polyreactivity (PSR sort gate)” value was “low polyreactivity”. As for “QVQLVESGGGLVQAGGSLRLSCAASGFTFTWNTMGWYRQAPGKERELVAAITKSAGSTYYADSVKGRFTISRDNAKNTVYLQMNSLKPEDTAVYYCAARRVSRGNSKFDYYWGQGTQVTVSS”, the entry is “high polyreactivity”.

Regarding “QVQLVESGGGLVQAGGSLRLSCAASGFTFTYNAMGWYRQEPGKERELVAAITANGGGTNYADSVKGRFTISRDNAKNTVYLQMNSLKPEDTAVYYCAATIVVAVFESLGFYWYTEENYWGQGTLVTVSS”, the “polyreactivity (PSR sort gate)” value was “low polyreactivity”.

Turning to “QVQLVESGGGLVQAGGSLRLSCAASGFTFTYYAMGWSRQAPGKERELVATISSGGSTYYADSVKGRFTISRDNAKYTVYLQMISLKPEDTAVYYCAVTTYSGLYGFDYWGQGTQVTVSS”, the “polyreactivity (PSR sort gate)” value was “low polyreactivity”.

As to “QVQLVESGGGLVQAGGSLRLSCAASGFTFTYYAMGWYRPAPGKERELVAAISTGGSTYYADSVKGRFTISRDNAKNTVYLQMNSLKPEDTAVYYCNAKPRYRKADRLDYWGQGTQVTVSS”, the “polyreactivity (PSR sort gate)” value is “high polyreactivity”.

Consider “QVQLVESGGGLVQAGGSLRLSCAASGFTFTYYAMGWYRQAPAKERELVAAISSSGGRTYYADSVKGRFTISRDNAKNTVYLQMNSLKPEDTAVYYCAARSVSATPDFHYWGQGTQVTVSS”, for which the “polyreactivity (PSR sort gate)” value is on record as “high polyreactivity”. Take “QVQLVESGGGLVQAGGSLRLSCAASGFTFTYYAMGWYRQAPGKERELVAAISGNGGSTYYADSVKGRFTISRDNAKNTVYLQMNSLKPEDTAVYYCNALPKSVGRWYRGDYWGQGTQVTVSS”: the “polyreactivity (PSR sort gate)” value is “high polyreactivity”. As for “QVQLVESGGGLVQAGGSLRLSCAASGFTFTYYAMGWYRQAPGKERELVAAISWSSDSTYYADSVKGRFTISRDNAKNTVYLQMNSLKPEDTAVYYWAARPGSKNVEYYYWGQGTQVTVSS”, the entry is “low polyreactivity”. On to “QVQLVESGGGLVQAGGSLRLSCAASGFTFTYYAMGWYRQAPGKERELVASISRRGGDTYYADSVKGRFTISRDNAKNTVYLQMNSLKPEDTAVYYCATRRRQALDGGYYYWGQGTQVTVSS”, for which the “polyreactivity (PSR sort gate)” value is given as “high polyreactivity”. Under “QVQLVESGGGLVQAGGSLRLSCAASGFTFTYYVMGWYRQAPGKVRELVAAITRGGITDYADSVKGRFTISRDNAKNTVDLQMNSLKPEETAVYYCAAYYSYVLDYDYWGQGTQVTVSS” stands “low polyreactivity”; under “QVQLVESGGGLVQAGGSLRLSCAASGFTFVAYAMGWYRQAPGKERELVAAISRRGGPTYYADSVKGRFTISRDNAKYTVYLQMNSLKAEDTAVYYCAAGWKAFDQRRTGRLIRLLGQGTQVTVSS”, “high polyreactivity”; under “QVQLVESGGGLVQAGGSLRLSCAASGFTFVAYAMGWYRQAPGKERELVAAITWSGSRTYYADSVKGRFTISRDNAKNTVYLQMNSLKPEDTAVYYCAAGKTEGHYGYWGQGTQVTVSS”, “high polyreactivity”. As for “QVQLVESGGGLVQAGGSLRLSCAASGFTFVAYAMGWYRQAPGKERELVAAITWSGSRTYYADSVKGRFTISRDNAKNTVYLQMNSLKPEDTAVYYCAARKTEGHYGYWGQGTQVTVSS”, the entry is “high polyreactivity”. On to “QVQLVESGGGLVQAGGSLRLSCAASGFTFVGNAMGWYRQAPGKERELVATITSGGNTKYADSVKGRFTISRDNAKNTVYLQMNILKPEDTAVYYCAADSDSFWGVPSYYWGQGTQVTVSS”, for which the “polyreactivity (PSR sort gate)” value was “low polyreactivity”. Under “QVQLVESGGGLVQAGGSLRLSCAASGFTFVGNTMGWYRQAPGKERELVAAIRGRDGRTYYADSVKGRFTISRDNEKNTVYLQMNSLKPEDTAVYYCNVDVKYSVRSEFDYWGQGTQVTVSS” stands “low polyreactivity”; under “QVQLVESGGGLVQAGGSLRLSCAASGFTFVGYAMGWYRQAPGKESELVAAITSSGGSTYYADSVKGRFTISRDNAKNTVYLQMNSLKPEDTAVYYCAAPAPVLSTQKRFDSWGQGTQVTVSS”, “low polyreactivity”; under “QVQLVESGGGLVQAGGSLRLSCAASGFTFVGYVMGWYRQAPGKERELVAAISRRGRSTYYADSVKGRFTISRDNAKNTVYLQMNSLKPEDTAVYYCNKRWSSKSVQYDYWGQGTQVTVSS”, “high polyreactivity”. Turning to “QVQLVESGGGLVQAGGSLRLSCAASGFTFVPHTMGWYRQAPGKERELVAGINYGVGSTYYADSVKGRFTISRDNAMNTVYLQMNSLKPEDTAVYYCAADIVYLYGLLYYWGQGTQVTVSS”, the “polyreactivity (PSR sort gate)” value was “low polyreactivity”. Under “QVQLVESGGGLVQAGGSLRLSCAASGFTFVPYAMGWYRPAPGKERELLAAIDFDDATTYYADSVKGRFTISRDNAKNTVYLQMNSLKPEDTAVYYCAAVYYRRSYQGGYEYWGQGTQVTVSS” stands “high polyreactivity”; under “QVQLVESGGGLVQAGGSLRLSCAASGFTFVPYTMGWYRQAPGKERELVPRINTSGGGTYYADSVKGRFTISRDNAKNTVYLQMNSLKPEDTAVYYCAARRNYRAQPKTRWTGYYYWGQGTQVTVSS”, “high polyreactivity”; under “QVQLVESGGGLVQAGGSLRLSCAASGFTFVRYAMGWYRQAPGKERELVAAISRRGGSTYYADSVKGRFTISRDNAKNTVYLQMNSLKPEDTAVYYCNALPRPSYPFDYWGQGTQVTVSS”, “high polyreactivity”. Under “QVQLVESGGGLVQAGGSLRLSCAASGFTFVRYAMGWYRQAPGKERELVAVISRSGGSTNYADSVKGRFTISRDNAKNTVYLQMNSLKPEDTAVYYCAASLQYRRLVKGGDYWGQGTQVTVSW” stands “high polyreactivity”; under “QVQLVESGGGLVQAGGSLRLSCAASGFTFVRYTMGWYRQAPGKERELVAVIRRGGSTYYADSVKGRFTISRDNAKNTVYLPMKSLKPEDTAVYYCNALSALAVEDGYWGQGTQVTVSS”, “low polyreactivity”. Regarding “QVQLVESGGGLVQAGGSLRLSCAASGFTFVRYTMGWYRQAPGKERELVAVIRRGGSTYYADSVKGRFTISRDNAKNTVYLQMNSLKPEDTAVYYCNALSALAVEDGYWGQGTQVTVSS”, the “polyreactivity (PSR sort gate)” value was “low polyreactivity”. Under “QVQLVESGGGLVQAGGSLRLSCAASGFTFVSYAMGWYRQAPGKERELVAAISKRGGSTSYADSVKGRFTISRDNAKNTVYLQMNSLKPEDTAGYYCAARYGSSYSWSNYWGQGTQVTVSS” stands “high polyreactivity”; under “QVQLVESGGGLVQAGGSLRLSCAASGFTFVVYDMGWYRQAPGKESELVAVINNSGGSTYYADSVKGRFTISRDNAKNTVSLQMNSLKPEDTAVYYCATRTPVWVNTESDYWGQGTQVTVSS”, “low polyreactivity”; under “QVQLVESGGGLVQAGGSLRLSCAASGFTFVYYAKGWYRQAPGKERELVATISGNGGRTYYADSVKGRFTISRDNAKNTVYLQMNSLKPEDTAVYYCAALLYIRSVGYDYWGQGTQVTVSS”, “low polyreactivity”. As for “QVQLVESGGGLVQAGGSLRLSCAASGFTFVYYAMGWYRQAPGKERALVASITQSGGSTRYADSVKGRFTISRDNAKNTVYLQMNSLKPEDTAVYYCNRRLYRRWGLDWQYYYWGQGTQVTVSS”, the entry is “high polyreactivity”. As for “QVQLVESGGGLVQAGGSLRLSCAASGFTFVYYAMGWYRQAPGKERELVAAISRRGGNTNYADSVKGRFTISRDNEKNTVYLQMNSLKTEDTAVYYCNARLTGDRYYYYPMDYWGQGTQVTVST”, the “polyreactivity (PSR sort gate)” value was “high polyreactivity”.

As to “QVQLVESGGGLVQAGGSLRLSCAASGFTFVYYAMGWYRQAPGKERELVATISGHGGRTYYADSVKGRFTISRDNAKNTVYLQMNSLKPEDTAVYYCAALLYIRSVGYDYWGQGTQVTVSS”, the “polyreactivity (PSR sort gate)” value was “low polyreactivity”.

“QVQLVESGGGLVQAGGSLRLSCAASGFTFVYYTMGWSSQAPGKERELVAAISSSGGRTSYADSVKGRFTISRDNEKNTVYLQMNSLKPEDTAVYYCAARAYPTWRTYYYWGQGTQVTVSS”: the “polyreactivity (PSR sort gate)” value is “high polyreactivity”. Under “QVQLVESGGGLVQAGGSLRLSCAASGFTFVYYVMGLYRQAPGKERELVAAINAGGGSTYYADSVKGRFTISRDNAKNTVYLQMNSLKPEDTAVYYCNARVRVRLGRNWSSYYYWGQGTQVTVST” stands “high polyreactivity”; under “QVQLVESGGGLVQAGGSLRLSCAASGFTFVYYVMGWYRQAPGKEREKVAAINAGGGSTYYADSVKGRFTISRDNAKNTVYLQMHSLKPEDSAVYYCATRPRYYYFRYDYWGQGTQVTVSS”, “high polyreactivity”; under “QVQLVESGGGLVQAGGSLRLSCAASGFTFVYYVMGWYRQAPGKERELVAAINAGGGSTYYADSVKGRFTISRDNAKNTVYLQMNSLKPEDTAVYYCNARVRVRLGRNWSSYYYCGQGTQVTVSS”, “high polyreactivity”.

In the case of “QVQLVESGGGLVQAGGSLRLSCAASGFTFVYYVMGWYRQAPGKERELVAAINAGGGSTYYADSVKGRFTISRDNAKNTVYLQMNSLKPEDTAVYYCNARVRVRLGRNWSSYYYWGQGTQVTVSS”, the “polyreactivity (PSR sort gate)” value is “high polyreactivity”. Under “QVQLVESGGGLVQAGGSLRLSCAASGFTFWAYAMGWYRHAPGKEMEVVAAISKTGGRTYYADSVKGRFTISRDNAKNNDYLQINSLKPEDTAVYYCAVDITGLYYPVDYWGQGTQVTVSS” stands “high polyreactivity”; under “QVQLVESGGGLVQAGGSLRLSCAASGFTFWDYAMGWYRQAPGKERELVATISSDGSTNYADSVKGRFTISRDNAKNTVYLQMNSLKPEDTAVYYCAADGYLYFWYPYDYWGQGTQVTVSS”, “low polyreactivity”. “QVQLVESGGGLVQAGGSLRLSCAASGFTFWDYAMGWYRQSPGKERELVAAISSRGTRTYYADSVKGRFTISRDNAKNTVYLQMNSLKPEDTAVYYCATAITDPDYIHNYWGQGTQVTVSS”: the “polyreactivity (PSR sort gate)” value is on record as “high polyreactivity”.

Regarding “QVQLVESGGGLVQAGGSLRLSCAASGFTFWGYTMGWYRQAPGKERELVAAITSTGSTYYADSVKGRFTISRDNAKNTVYFLMNSLKPEDTAVYYCAATRGSSEYYYWGQGTQLTVSS”, the “polyreactivity (PSR sort gate)” value was “low polyreactivity”.
